This test addresses Escherichia coli MRE600 30S ribosomal subunits (E. coli). In words: ITC.

What is called Kd is the constant that tells how readily two partners part at equilibrium. A lower Kd goes with a tighter complex.

B1: initiation factor IF1 (natural protein)
chain: MAKEDNIEMQGTVLETLPNTMFRVELENGHVVTAHISGKMRKNYIRILTGDKVTVELTPYDLSKGRIVFRSR
For the molecule B1, the Kd was 0.806 µM.

The values above are taken from doi:10.1101/2021.05.24.445485.
